Results: patent US20140073768A1

Each substance was assayed against extracellular region of human V158 FcγRIIIa, C-terminal 6xHis-tag and GST-tag (human) (UniProt P08637) (assay: SPR).

Substance	Fold WT
alemtuzumab S267E (antibody)	2.62 fold
alemtuzumab E258H (antibody)	5.5 fold
alemtuzumab T260H (antibody)	1.86 fold
alemtuzumab E283H (antibody)	2.31 fold
alemtuzumab E272R (antibody)	1.38 fold

The next lines start with the values.

Fold WT	Substance
1.77 fold	alemtuzumab E258Y (antibody)
22.4 fold	alemtuzumab K246H (antibody)
12.8 fold	alemtuzumab S304T (antibody)
384 fold	alemtuzumab E272H (antibody)
5.66 fold	alemtuzumab H268D (antibody)
1.41 fold	alemtuzumab R255Y (antibody)
2.56 fold	alemtuzumab E283L (antibody)
7.07 fold	alemtuzumab K246Y (antibody)
1.51 fold	alemtuzumab V284E (antibody)

These substances were tested against FcγRIIIa on human PBMCs expressing heterozygous V158/F158 FcγRIIIa (human) (UniProt P08637) (assay: cell-based or functional assay).

ADCC EC50, DoHH-2 targets, PBMCs	ADCC log(EC50), DoHH-2 targets, PBMCs	Substance
4 ng/mL	0.6	alemtuzumab V264I/I332E (antibody)
3 ng/mL	0.49	alemtuzumab S239D/I332E (antibody)

Each substance was assayed against extracellular region of human F158 FcγRIIIa, C-terminal 6xHis-tag and GST-tag (human) (UniProt P08637) (assay: SPR, receptor immobilized, antibody flowed over).

Kd	Substance
0.73 µM	alemtuzumab, wild type (antibody)

Each substance was assayed against extracellular region of human V158 FcγRIIIa, C-terminal 6xHis-tag and GST-tag (human) (UniProt P08637) (assay: SPR, receptor immobilized, antibody flowed over).

Kd	Substance
0.068 µM	alemtuzumab, wild type (antibody)
